{"source": "paper PMC4857727", "origin": "cited, not measured here", "key": {"[1]": {"biological_target": "IL5R-alpha peptide (Homo sapiens) (UniProt Q01344)", "sequence (Q01344 21-420)": "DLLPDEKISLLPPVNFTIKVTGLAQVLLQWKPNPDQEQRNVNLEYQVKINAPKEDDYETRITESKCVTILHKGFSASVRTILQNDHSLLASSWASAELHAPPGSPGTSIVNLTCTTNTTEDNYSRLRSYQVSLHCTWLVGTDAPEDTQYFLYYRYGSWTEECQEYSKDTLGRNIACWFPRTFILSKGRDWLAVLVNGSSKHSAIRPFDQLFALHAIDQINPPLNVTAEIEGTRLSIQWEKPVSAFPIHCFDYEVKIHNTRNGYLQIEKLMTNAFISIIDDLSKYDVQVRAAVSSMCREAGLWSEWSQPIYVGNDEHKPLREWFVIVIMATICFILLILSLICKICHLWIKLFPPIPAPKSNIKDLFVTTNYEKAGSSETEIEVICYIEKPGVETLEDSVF"}, "[2]": {"biological_target": "Syndecan peptide (Homo sapiens) (UniProt P31431)", "sequence (P31431 19-198)": "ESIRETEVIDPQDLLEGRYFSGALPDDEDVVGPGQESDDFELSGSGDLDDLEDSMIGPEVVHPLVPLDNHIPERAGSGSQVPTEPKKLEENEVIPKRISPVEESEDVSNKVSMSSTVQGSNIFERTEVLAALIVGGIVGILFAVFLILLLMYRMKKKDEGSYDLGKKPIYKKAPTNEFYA"}}}
{"substance": "Syntenin PDZ2 (from UniProt O00560)", "values": [{"measurement": "Kd", "setting": "[1]", "value": 43.8, "unit": "µM"}, {"measurement": "Kd", "setting": "[2]", "value": 2.9, "unit": "µM"}]}
